Measured values taken from patent US20200239573A1 (CRESCENDO BIOLOGICS, published 2020).
Positions count from the first letter of the chain named. Values joined by “and” are separate entries in the source; they are usually repeats but may differ in a detail not shown here. Identical values can stand only once. Like-named read-outs stand apart in the source and are kept apart here. Blank lines part the entries; values can stand above or below the binder they belong to.

Experiments:
[1] = biological target: T1, human PD-1 expressed on cells (CHO human PD-1 cells) (human, UniProt Q15116 21-288); assay: FMAT inhibition assay on CHO human PD-1 cells; blocked ligand: human Fc tagged human PD-L1
T1 construct: also called CHO TREX human PD-1 cell line; CHO PD-1
T1 sequence (Q15116 21-288): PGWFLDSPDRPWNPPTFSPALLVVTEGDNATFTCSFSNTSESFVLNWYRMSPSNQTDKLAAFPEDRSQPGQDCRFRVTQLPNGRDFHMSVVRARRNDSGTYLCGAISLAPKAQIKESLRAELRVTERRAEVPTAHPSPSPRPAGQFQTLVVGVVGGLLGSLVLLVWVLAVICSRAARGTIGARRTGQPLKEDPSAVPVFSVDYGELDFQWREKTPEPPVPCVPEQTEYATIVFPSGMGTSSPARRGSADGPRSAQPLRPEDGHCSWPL
Protocol: (§1) All reagents and serially diluted VH were prepared in FMAT assay buffer. […] Plates were incubated for 2 hours at room temperature then fluorescence measured in the FL2 (502 nm-537 nm) and FL5 (677-800 nm) channels on the Mirrorball plate reader (TTP) following excitation at 488 nm and 640 nm. Data was expressed as a % of the total binding control (i.e. % control) after subtraction of the background signal determined from the non-specific binding control wells.

[2] = biological target: T2, recombinant human PD-1 Fc chimera (human, UniProt Q15116 25-167); assay: HTRF inhibition; biotinylated PD-L2-Fc vs Eu-cryptate PD-1-Fc
T2 construct: Bought protein; also called human PD-1-huFc; huPD-1-Fc; not shown: human Fc
T2 sequence (Q15116 25-167 limits assumed, change not shown): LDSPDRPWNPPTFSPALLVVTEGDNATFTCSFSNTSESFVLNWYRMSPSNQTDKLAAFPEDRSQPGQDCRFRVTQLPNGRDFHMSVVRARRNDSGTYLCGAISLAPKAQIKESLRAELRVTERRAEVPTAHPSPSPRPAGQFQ

[3] = biological target: T2, recombinant human PD-1 Fc chimera; assay: SPR Biacore T200, PD-1-huFc amine-coupled, single cycle kinetics
Protocol: Binding kinetics of certain VH single domain antibodies binding to human PD-1-huFc were measured by surface plasmon resonance (SPR) technology using Biacore T200 instrument (GE Healthcare). Recombinant human PD-1-huFc was immobilized by standard amine coupling to CM5 sensorschip (GE Healthcare) using in range of 0.1-0.01 mg/ml solution of antigen in 10 mM sodium acetate at pH 5.5. For the reference flow cell, a blank immobilisation was carried out. Single cycle kinetics assays were used to study the interaction, a five point, three-fold dilution series of each Humabody® was made with a top concentration of 30 nM. The binding kinetics were followed by flowing the Humabody® over the chip surface in HBS EP+ buffer at a flow rate of 30 μl/min. The contact time for each of the association steps was 180 seconds and the dissociation step was varied between 1200-3600 seconds. The data was fitted to a 1:1 binding model after double reference subtraction using the Biacore T200 Evaluation software.

[4] = biological target: T3, cynomolgus PD-1 recombinant protein (cynomolgus, UniProt B0LAJ3 25-170); assay: HTRF binding, 2 nM PD-1, anti-Fc cryptate and anti-His-D2
T3 construct: Detected with anti human-Fc cryptate, so probably Fc tagged; also called cyno PD-1; cynomolgus PD-1 (Acro Biosystems cat no. PD-1-05254); not shown: The vendor's carrier tag; It is probably a human Fc, since detection used anti human-Fc cryptate
T3 sequence (B0LAJ3 entry or part of it limits assumed): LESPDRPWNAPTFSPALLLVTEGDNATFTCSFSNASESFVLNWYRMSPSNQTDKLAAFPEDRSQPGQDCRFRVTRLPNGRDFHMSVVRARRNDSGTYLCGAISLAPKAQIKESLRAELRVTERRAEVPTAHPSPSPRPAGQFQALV
Protocol: (§2) e) Species Cross Reactivity Testing Purified […] were tested for their ability to bind to human PD-1 (R&D Systems cat no. 1086-PD), cynomolgus PD-1 (Acro Biosystems cat no. PD-1-05254) and mouse PD-1 (R&D Systems cat no. 1021-PD) in an HTRF Binding assay format. All reagents and serially diluted VH were prepared in assay buffer containing PBS, 0.1% BSA and 0.4M Potassium Fluoride. Samples or assay buffer (non-specific binding) were incubated with 2 nM human/cynomolgus or mouse PD-1, 1 nM Anti human-Fc Cryptate PAb (Cisbio cat. no. 61HFCKLB) and 30 nM anti His-D2 (CisBio cat no 61HISDLA) in black 384-shallow well assay plates for a minimum of 3 hours at room temperature. Time-resolved fluorescent emission at 620 nm and 665 nm was measured following excitation at 337 nm on the BMG PHERAstar plate reader. The HTRF ratio were calculated ((665 nm emission/620 nm emission)*10000) and the data corrected for (non-specific binding) to give the specific binding signal.

[5] = biological target: T2, recombinant human PD-1 Fc chimera; assay: as above
Protocol: as §2

mouse PD-1 protein [6] = biological target: T4, mouse PD-1 protein (mouse, UniProt Q02242 25-167); assay: HTRF binding, 2 nM mouse PD-1
T4 construct: Detected with anti human-Fc cryptate, so probably Fc tagged; also called mouse PD-1 (R&D Systems cat no. 1021-PD)
T4 sequence (looked up): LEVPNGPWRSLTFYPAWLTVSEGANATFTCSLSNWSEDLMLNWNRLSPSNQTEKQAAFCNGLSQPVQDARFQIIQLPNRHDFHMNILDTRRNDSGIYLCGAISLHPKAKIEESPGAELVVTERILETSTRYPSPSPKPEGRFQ
Protocol: as §2

[7] = biological target: T2, recombinant human PD-1 Fc chimera; assay: HTRF inhibition; strep-tagged PD-L1 vs PD-1-Fc
[8] = biological target: human PD-1 expressed on cells (CHO human PD-1 cells) (human) (UniProt Q15116); assay: FMAT inhibition assay on CHO human PD-1 cells; blocked ligand: human Fc tagged human PD-L1
Sequence of human PD-1 expressed on cells (CHO human PD-1 cells) (human) (Q15116 21-288): as the sequence (Q15116 21-288) above

[9] = biological target: T1, human PD-1 expressed on cells (CHO …); assay: FMAT 1.57 epitope competition assay on CHO human PD-1 cells; competitor: 1.57-Strep tagged protein; 4 days in mouse serum
Protocol: (§3) For the epitope competition assay reagents were prepared in FMAT assay buffer. […] Plates were incubated for a minimum of 1.5 hours at room temperature then fluorescence measured in the FL2 (502 nm-537 nm) and FL5 (677-800 nm) channels on the Mirrorball plate reader (TTP) following excitation at 488 nm and 640 nm. Data was expressed as a % of the total binding control (i.e. % control) after subtraction of the background signal determined from the non-specific binding control wells.
(§4) Serum stability of VH and multivalent VH constructs was assessed by measurement of their activity following incubation for 0, 1, 4 or 7 days in mouse serum (Sigma M5905).

[10] = biological target: T1, human PD-1 expressed on cells (CHO …); assay: cell-based or functional assay
[11] = biological target: T1, human PD-1 expressed on cells (CHO …); assay: FMAT 1.57 epitope competition assay on CHO human PD-1 cells; competitor: 1.57-Strep tagged protein; 1 day in mouse serum
Protocol: as §3, §4

[12] = biological target: T2, recombinant human PD-1 Fc chimera; assay: SPR Biacore T200, PD-1-Fc captured on protein G, single cycle kinetics
Protocol: Single cycle kinetics assays were used to study the interaction between human Fc tagged human PD-1 with Humabody® on a Biacore T200 instrument (GE Healthcare). Protein G was amine coupled to two flow cells of a CM-5 chip. Human Fc tagged recombinant human PD-1 was captured onto one of the flow cells. The other was used as the reference flow cell. A five point, three-fold dilution series of each Humabody® was made with a top concentration within the range of 50 to 150 nM. The binding kinetics were followed by flowing the Humabody® over the chip surface in HBS EP+ buffer at a flow rate of 30 μl/min. The contact time for each of the association steps was 180 seconds and the dissociation step was 3600 seconds. The data was fitted to a 1:1 binding model after double reference subtraction using the Biacore T200 Evaluation software.

[13] = biological target: human PD-1 expressed on cells (CHO human PD-1 cells) (human) (UniProt Q15116); assay: cell-based or functional assay
[14] = biological target: human PD-1 on primary human CD4+ T cells (human, UniProt Q15116 21-288); assay: flow cytometry on PHA-stimulated human CD4+ T cells (live cell gate)
Sequence of human PD-1 on primary human CD4+ T cells (Q15116 21-288): as above
Protocol: Binding of monovalent single domain antibodies and multivalent binding agents to T cells was measured using flow cytometry. […] T-cells were stimulated with 2.5 μg/ml PHA for 2-4 days in RPMI media supplemented with 10% FBS, 2 mM Glutamine, 1× Pen/Strep. Cells were transferred into 96 well plates (75000 per well), blocked for 10 mins with PBS/1% BSA, then incubated with serially diluted VH in staining buffer (PBS/1% BSA) for 1 hour at 4° C. Cells were washed with staining buffer by centrifugation then incubated with 10 μg/ml biotinylated Anti His antibody for 40 mins at 4° C. Cells were washed again then stained with Streptavidin Alexa Fluor-488 (10 μg/ml) and 1:5000 diluted Live Dead near IR stain (Molecular Probes cat no. L10119) for 30 mins at 4° C. After further washing cells were fixed and fluorescence measured by flow cytometry.

[15] = biological target: human PD-1 expressed on cells (CHO human PD-1 cells) (human) (UniProt Q15116); assay: FMAT 1.57 epitope competition assay on CHO human PD-1 cells; competitor: 1.57-Strep tagged protein; 1 day in mouse serum
[16] = biological target: human PD-1 expressed on cells (CHO human PD-1 cells) (human) (UniProt Q15116); assay: FMAT 1.57 epitope competition assay on CHO human PD-1 cells; competitor: 1.57-Strep tagged protein; 0 days in mouse serum
[17] = biological target: human PD-1 expressed on cells (CHO human PD-1 cells) (human) (UniProt Q15116); assay: FMAT 1.57 epitope competition assay on CHO human PD-1 cells; competitor: 1.57-Strep tagged protein; 7 days in mouse serum
[18] = biological target: T1, human PD-1 expressed on cells (CHO …); assay: FMAT inhibition assay on CHO human PD-1 cells; blocked ligand: human Fc tagged human PD-L1; a separate run from Figure 4 a)
Protocol: as §1

[19] = biological target: T1, human PD-1 expressed on cells (CHO …); assay: FMAT 1.57 epitope competition assay on CHO human PD-1 cells; competitor: 1.57-Strep tagged protein; 0 days in mouse serum
Protocol: as §3, §4

[20] = biological target: T1, human PD-1 expressed on cells (CHO …); assay: FMAT 1.57 epitope competition assay on CHO human PD-1 cells; competitor: 1.57-Strep tagged protein; 7 days in mouse serum
Protocol: as §3, §4

[21] = biological target: T1, human PD-1 expressed on cells (CHO …); assay: cell-based or functional assay; remark: listed apart in the source
[22] = biological target: T1, human PD-1 expressed on cells (CHO …); assay: cell-based or functional assay; remark: listed apart in the source
mouse PD-1 protein [23] = biological target: T4, mouse PD-1 protein; assay: HTRF binding
[24] = biological target: T5, Strep tagged recombinant human PD-1 (human, UniProt Q15116 25-170, limits assumed); assay: SPR Biacore T200, strep-tagged PD-1 amine-coupled, single cycle kinetics
T5 construct: the whole entry is named; also called strep tagged human PD-1; not shown: Strep tag
T5 sequence (Q15116 25-170 limits assumed): as the sequence (B0LAJ3 entry or part of it limits assumed) above, with E2D, A10P, L19V, A35T, R75Q, A144T counted along it

IC50 (read off the curve) [1]: ~20 nM | IC50 [2]: 4.9 nM | Kd [3]: 0.676 nM | koff [3]: 7.35e-05 s⁻¹ | kon [3]: 109000 M⁻¹ s⁻¹ | EC50 [4]: 6.3 nM | EC50 [5]: 4 nM | binding result (mouse PD-1 protein [6]): no binding | IC50 [7]: 1.27 nM
B1: Humabody® 1.1 (VHH)
VHH: QVQLVESGGGLVKPGGSLRLSCAASGFTFSDYTMTWMRQAPGKGLEWVSYISTGGTIKYYTDSVKGRFTISRDNAKNSLYLQMNSLRADDTAVYYCAREAPLRLGESPHDAFDIWGQGTMVTVSS
notes: human VH single domain antibody; also called VH single domain antibody 1.1; clone 1.1

IC50 (read off the curve) [8]: 6 nM | IC50 (read off the curve) [9]: ~1 nM | Reporter Assay EC50 [10]: 8.6 nM | IC50 (read off the curve) [11]: ~0.7 nM | Kd [12]: 0.0586 nM and 0.0533 nM | koff [12]: 1.99e-05 s⁻¹ and 2.32e-05 s⁻¹ | kon [12]: 340000 M⁻¹ s⁻¹ and 435000 M⁻¹ s⁻¹ | EC50 (M), human PD-1 reporter gene assay [13]: 1e-08 M | EC50 (M), reporter assay [13]: 1e-08 M | EC50 [4]: 0.75 nM | EC50 [5]: 0.59 nM | EC50 (read off the curve) [14]: 1 nM | EC50 (read off the curve) ([14]; record 2): ~0.2 nM | IC50 (read off the curve) [15]: 1 nM | IC50 (read off the curve) [16]: 2 nM | IC50 (read off the curve) [17]: 3 nM | IC50 (read off the curve) [18]: ~4 nM | binding result (mouse PD-1 protein [6]): no binding | IC50 (read off the curve) [19]: ~0.4 nM | IC50 (read off the curve) [20]: ~2 nM
B2: Humabody® 1.57 (VHH)
VHH: B1 VHH with Y32N, T33S, T53S, T56G, I57V, K58I, Y59F, T61A, W115S
notes: human VH single domain antibody

EC50 (M), reporter assay [21]: 1e-09 M | EC50 (M), human PD-1 reporter gene assay [22]: 1e-09 M | binding result (mouse PD-1 protein [23]): no binding | Kd [24]: 0.0173 nM | koff [24]: 1.54e-05 s⁻¹ | kon [24]: 888000 M⁻¹ s⁻¹
B3: 1.57-4GS-1.57 (other)
chain: QVQLVESGGGLVKPGGSLRLSCAASGFTFSDNSMTWMRQAPGKGLEWVSYISSGGGVIFYADSVKGRFTISRDNAKNSLYLQMNSLRADDTAVYYCAREAPLRLGESPHDAFDISGQGTMVTVSSGGGGSGGGGSGGGGSGGGGSQVQLVESGGGLVKPGGSLRLSCAASGFTFSDNSMTWMRQAPGKGLEWVSYISSGGGVIFYADSVKGRFTISRDNAKNSLYLQMNSLRADDTAVYYCAREAPLRLGESPHDAFDISGQGTMVTVSS
notes: bivalent construct of two VH domains in one chain
